Reference: patent US20190025332A1 (Novo Nordisk, published 2019)
One block for each binder: values may come before it.

Assays:
[1] = molecular target: T1, wild type human MIC-1 (human, UniProt Q99988 197-308); experiment: SPR; GFRAL fragment as analyte over immobilised wtMIC-1; relative to hGFRAL(ECR) set as 100%
T1 construct: also called wtMIC-1; hMIC-1
T1 sequence: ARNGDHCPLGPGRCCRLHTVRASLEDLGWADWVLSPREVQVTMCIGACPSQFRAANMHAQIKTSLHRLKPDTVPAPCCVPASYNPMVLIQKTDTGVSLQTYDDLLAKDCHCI
Protocol: MIC-1 interactions with soluble GFRAL fragments were assessed by SPR-based binding assay. A Biacore® 4000 (GE Healthcare, Piscataway, N.J., USA) instrument was used for SPR-based binding assay. The assays were performed at 25° C. at flow rates of 30 μL/minute in 1× HBS-P running buffer (BR-1006-71, GE Healthcare, Piscataway, N.J., USA). Purified GFRAL fragments at various concentrations were run as flow-through analyte and wtMIC-1 was immobilized as ligand. Please see FIG. 6 and Table 5.

[2] = molecular target: T2, VISTA-Fc; experiment: SPR; analyte 12 nM over immobilised VISTA-Fc (Ctrl-Fc)
T2 construct: Negative control ligand immobilised on the chip; also called Ctrl-Fc
Protocol: (§1) hRet and complex of hGFRAL and MIC-1 interactions were assessed by SPR-based binding assay. A Biacore® 4000 (GE Healthcare, Piscataway, N.J., USA) instrument was used. The assays were performed at 25° C. at flow rates of 30 μL/minute in 1× HBS-P running buffer (BR-1006-71, GE Healthcare, Piscataway, N.J., USA). hRet(ECR)-Fc was immobilized through Fc as ligand on the chip. VISTA-Fc was immobilized as negative control ligand. The complex of MIC-1 and hGFRAL was prepared by pre-incubating wtMIC-1 with hGFRAL(ECR)-His. wtMIC-1, hGFRAL(ECR)-His, complex of wtMIC-1 and Ctrl-His, and complex of wtMIC-1 and hGFRAL(ECR)-His at various concentration were run as flow-through analyte.

[3] = molecular target: T2, VISTA-Fc; experiment: SPR; analyte 37 nM over immobilised VISTA-Fc (Ctrl-Fc)
Protocol: as §1
(§2) Thus, it can be concluded that that hRet binds to hGFRAL in the presence of MIC-1; and Ret, MIC-1 and GFRAL forms a ternary complex.

[4] = molecular target: T3, hRET(ECR)-hIgG1.1_Fc (human); experiment: SPR; analyte 12 nM over immobilised hRet(ECR)-Fc
T3 construct: also called hRET(ECR)-Fc; hRet(ECR)-Fc
T3 sequence (chain, as listed by the source limits assumed): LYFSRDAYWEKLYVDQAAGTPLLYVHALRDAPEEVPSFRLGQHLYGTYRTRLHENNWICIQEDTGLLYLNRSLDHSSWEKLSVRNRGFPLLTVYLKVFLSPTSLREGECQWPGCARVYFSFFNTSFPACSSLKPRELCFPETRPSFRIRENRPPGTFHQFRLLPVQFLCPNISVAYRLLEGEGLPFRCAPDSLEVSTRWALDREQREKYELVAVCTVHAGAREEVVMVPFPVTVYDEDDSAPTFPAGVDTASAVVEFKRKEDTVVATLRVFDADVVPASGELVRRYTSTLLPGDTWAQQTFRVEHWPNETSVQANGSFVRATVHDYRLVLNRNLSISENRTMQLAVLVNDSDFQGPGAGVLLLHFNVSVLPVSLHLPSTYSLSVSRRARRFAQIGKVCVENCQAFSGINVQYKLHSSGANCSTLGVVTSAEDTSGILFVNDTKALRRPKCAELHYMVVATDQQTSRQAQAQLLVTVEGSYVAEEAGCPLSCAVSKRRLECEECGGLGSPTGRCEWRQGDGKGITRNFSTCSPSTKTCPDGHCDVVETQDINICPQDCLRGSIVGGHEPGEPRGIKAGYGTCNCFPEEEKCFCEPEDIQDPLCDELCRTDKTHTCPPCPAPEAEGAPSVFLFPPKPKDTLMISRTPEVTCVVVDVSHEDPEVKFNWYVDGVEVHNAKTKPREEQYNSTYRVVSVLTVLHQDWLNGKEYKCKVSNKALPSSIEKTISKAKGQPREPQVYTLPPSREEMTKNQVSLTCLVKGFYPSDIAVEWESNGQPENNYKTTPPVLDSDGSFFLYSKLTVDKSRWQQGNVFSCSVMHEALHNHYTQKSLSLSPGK
Protocol: as §1, §2

[5] = molecular target: T2, VISTA-Fc; experiment: SPR; analyte 0 nM over immobilised VISTA-Fc (Ctrl-Fc)
Protocol: as §1, §2

[6] = molecular target: T3, hRET(ECR)-hIgG1.1_Fc; experiment: SPR; analyte 333 nM over immobilised hRet(ECR)-Fc
Protocol: as §1, §2

[7] = molecular target: T2, VISTA-Fc; experiment: SPR; analyte 333 nM over immobilised VISTA-Fc (Ctrl-Fc)
Protocol: as §1, §2

[8] = molecular target: T2, VISTA-Fc; experiment: SPR; analyte 1000 nM over immobilised VISTA-Fc (Ctrl-Fc)
Protocol: as §1, §2

[9] = molecular target: T3, hRET(ECR)-hIgG1.1_Fc; experiment: SPR; analyte 37 nM over immobilised hRet(ECR)-Fc
Protocol: as §1, §2

[10] = molecular target: T2, VISTA-Fc; experiment: SPR; analyte 111 nM over immobilised VISTA-Fc (Ctrl-Fc)
Protocol: as §1, §2

[11] = molecular target: T3, hRET(ECR)-hIgG1.1_Fc; experiment: SPR; analyte 1000 nM over immobilised hRet(ECR)-Fc
Protocol: as §1, §2

[12] = molecular target: T3, hRET(ECR)-hIgG1.1_Fc; experiment: SPR; analyte 111 nM over immobilised hRet(ECR)-Fc
Protocol: as §1, §2

[13] = molecular target: T3, hRET(ECR)-hIgG1.1_Fc; experiment: SPR; analyte 0 nM over immobilised hRet(ECR)-Fc
Protocol: as §1, §2

- % of Binding [1]: 8%
B1: hGFRAL_C2C3_Fab_HPC4 (receptor)
chain: CLEVAEACVGDVVCNAQLASYLKACSANGNPCDLKQCQAAIRFFYQNIPFNIAQMLAFCDCAQSDIPCQQSKEALHSKTCAVNMVPPPTCLSVIRSCQNDELCRRHYRTFQSKCWQRVTRKCHEDENCISTLSKQDLTCSGSDDCKAAYIDILGTVLQVQCTCRTITQSEESLCKIFQHMLHRKSCFNYPTLSNVKGMALYTRKHANKITLTGFHSPFNGEGGGGSGGGGSDVVMTQTPLSLPVSLGDQASISCRSSQSLLHSNGNTYLHWYLQKPGQSPKLLIYKVSNRFSGVPDRFSGSGSGTDFTLKISRVEAEDLGVYFCSQSTHVPWTFGGGTKLEIKRADAAPTVSIFPPSSEQLTSGGASVVCFLNNFYPKDINVKWKIDGSERQNGVLNSWTDQDSKDSTYSMSSTLTLTKDEYERHNSYTCEATHKTSTSPIVKSFNRNEC
heavy: EVQIQESGPSLVKPSQTLSLTCSVSGDSITSGYWNWIRKFPGHKIEYMGTISYSGDTYYNPSLKSRISITRDTSKNQYYLHLNSVTTEDTATYYCARYGSYVFDYWGQGTTLTVSSAKTTPPSVYPLAPGSAAQTNSMVTLGCLVKGYFPEPVTVTWNSGSLSSGVHTFPAVLQSDLYTLSSSVTVPSSTWPSETVTCNVAHPASSTKVDKKIVPRDCGGGGSEDQVDPRLIDGK

- % of Binding [1]: 87%
B2: hGFRAL_C1C2_Fab_HPC4 (receptor)
chain: QTNNCTYLREQCLRDANGCKHAWRVMEDACNDSDPGDPCKMRNSSYCNLSIQYLVESNFQFKECLCTDDFYCTVNKLLGKKCINKSDNVKEDKFKWNLTTRSHHGFKGMWSCLEVAEACVGDVVCNAQLASYLKACSANGNPCDLKQCQAAIRFFYQNIPFNIAQMLAFCDCAQSDIPCQQSKEALHSKTCAVNMVPPPTGGGGSGGGGSDVVMTQTPLSLPVSLGDQASISCRSSQSLLHSNGNTYLHWYLQKPGQSPKLLIYKVSNRFSGVPDRFSGSGSGTDFTLKISRVEAEDLGVYFCSQSTHVPWTFGGGTKLEIKRADAAPTVSIFPPSSEQLTSGGASVVCFLNNFYPKDINVKWKIDGSERQNGVLNSWTDQDSKDSTYSMSSTLTLTKDEYERHNSYTCEATHKTSTSPIVKSFNRNEC
heavy: B1 heavy

- Response (RU) [2]: -2.34 RU
- Response (RU) [3]: -2.04 RU
- Response (RU) [4]: -0.0397 RU
- Response (RU) [5]: 0 RU
- Response (RU) [6]: -0.497 RU
- Response (RU) [7]: -3.48 RU
- Response (RU) [8]: -3.85 RU
- Response (RU) [9]: -0.105 RU
- Response (RU) [10]: -2.94 RU
- Response (RU) [11]: -1.11 RU
- Response (RU) [12]: 0.208 RU
- Response (RU) [13]: 0 RU
B3: hGFRAL(ECR)-His (receptor, not shown: small tags and cut ends)
chain: SQTNNCTYLREQCLRDANGCKHAWRVMEDACNDSDPGDPCKMRNSSYCNLSIQYLVESNFQFKECLCTDDFYCTVNKLLGKKCINKSDNVKEDKFKWNLTTRSHHGFKGMWSCLEVAEACVGDVVCNAQLASYLKACSANGNPCDLKQCQAAIRFFYQNIPFNIAQMLAFCDCAQSDIPCQQSKEALHSKTCAVNMVPPPTCLSVIRSCQNDELCRRHYRTFQSKCWQRVTRKCHEDENCISTLSKQDLTCSGSDDCKAAYIDILGTVLQVQCTCRTITQSEESLCKIFQHMLHRKSCFNYPTLSNVKGMALYTRKHANKITLTGFHSPFNGE
